Changes are numbered by the printed parent chain. Names and notes keep the numbering of the source. Values belong to the binder of their own block, whether it stands above or below them.
How the values were obtained:
[1] = molecular target: T1, human FcγRIIb extracellular domain, His-tagged (human, UniProt P31994 43-217); assay: SPR (Biacore), 25C, FcgR bound per antibody captured
T1 construct: also called human FcgRIIb
T1 sequence: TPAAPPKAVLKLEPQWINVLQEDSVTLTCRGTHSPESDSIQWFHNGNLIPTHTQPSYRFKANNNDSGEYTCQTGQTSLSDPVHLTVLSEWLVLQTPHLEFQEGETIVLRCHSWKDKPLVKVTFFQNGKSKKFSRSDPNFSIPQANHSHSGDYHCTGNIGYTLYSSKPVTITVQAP

[2] = molecular target: T2, human FcγRIIaH extracellular domain, His-tagged (human, UniProt P12318 34-217); assay: as above
T2 construct: also called human FcgRIIaH; FcγRIIa type H
T2 sequence: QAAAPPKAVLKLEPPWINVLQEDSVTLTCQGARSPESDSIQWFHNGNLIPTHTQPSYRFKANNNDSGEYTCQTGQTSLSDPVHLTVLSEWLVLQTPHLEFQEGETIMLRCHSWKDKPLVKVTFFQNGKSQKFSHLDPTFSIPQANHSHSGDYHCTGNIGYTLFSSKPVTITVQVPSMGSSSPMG

[3] = molecular target: T3, human FcγRIIaR extracellular domain, His-tagged (human, UniProt P12318 34-217); assay: as above
T3 construct: also called human FcgRIIaR; FcγRIIa type R
T3 chain: T2 sequence with H134R

[4] = molecular target: T4, human FcγRIIIaV extracellular domain, His-tagged (human, UniProt P08637 17-208); assay: as above
T4 construct: also called human FcgRIIIaV
T4 sequence (P08637 17-208 F176V): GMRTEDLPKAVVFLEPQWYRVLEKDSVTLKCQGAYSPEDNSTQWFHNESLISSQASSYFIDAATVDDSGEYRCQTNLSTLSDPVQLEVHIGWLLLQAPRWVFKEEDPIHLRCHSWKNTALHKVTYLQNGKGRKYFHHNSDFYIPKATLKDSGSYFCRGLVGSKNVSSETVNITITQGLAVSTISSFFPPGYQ

[5] = molecular target: T5, cynomolgus monkey FcγRIIIaS extracellular domain with C-terminal His-tag (cynomolgus monkey, UniProt A3RFZ7 21-206 (rhesus entry)); assay: SPR Biacore, antibody captured, FcgR analyte
T5 construct: also called cyno FcgRIIIaS; cynoFcγRIIIaS; not shown: His-tag added to C-terminus
T5 sequence (A3RFZ7 21-206): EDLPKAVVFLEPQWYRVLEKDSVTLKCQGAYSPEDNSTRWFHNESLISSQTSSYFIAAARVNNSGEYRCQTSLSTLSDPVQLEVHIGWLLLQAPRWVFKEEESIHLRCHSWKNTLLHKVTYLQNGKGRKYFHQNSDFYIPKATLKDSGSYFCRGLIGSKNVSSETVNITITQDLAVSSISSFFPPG

[6] = molecular target: T6, cynomolgus monkey FcγRIIb extracellular domain with C-terminal His-tag (cynomolgus monkey); assay: SPR Biacore, antibody captured, FcgR analyte
T6 construct: also called cyno FcgRIIb; cynoFcγRIIb; not shown: His-tag added to C-terminus
T6 chain: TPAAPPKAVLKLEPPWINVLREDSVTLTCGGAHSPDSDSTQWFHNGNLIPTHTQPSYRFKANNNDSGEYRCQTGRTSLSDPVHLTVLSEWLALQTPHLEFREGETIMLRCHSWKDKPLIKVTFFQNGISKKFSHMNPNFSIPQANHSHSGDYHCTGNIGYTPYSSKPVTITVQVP

[7] = molecular target: T7, human FcγRIIaR extracellular domain with C-terminal His-tag (human, UniProt P12318 34-217); assay: SPR Biacore, antibody captured, FcgR analyte
T7 construct: also called human FcgRIIaR; FcγRIIa (type R); not shown: His-tag added to C-terminus
T7 chain: T2 sequence with H134R

[8] = molecular target: T8, cynomolgus monkey FcγRIIa3 extracellular domain with C-terminal His-tag (cynomolgus monkey); assay: SPR (Biacore), KD of SG1 / KD of variant
T8 construct: also called cyno FcgRIIa3; cynoFcγRIIa3
T8 chain: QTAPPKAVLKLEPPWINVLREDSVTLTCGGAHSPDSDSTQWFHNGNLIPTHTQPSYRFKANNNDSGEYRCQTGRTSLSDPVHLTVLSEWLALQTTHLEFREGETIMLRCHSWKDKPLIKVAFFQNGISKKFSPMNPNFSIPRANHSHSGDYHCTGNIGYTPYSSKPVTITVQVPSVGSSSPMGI
Procedure: The kinetic analysis of interactions between these antibodies and FcγR was carried out using BIACORE® T200 or BIACORE® 4000 (GE Healthcare). HBS-EP+ (GE Healthcare) was used as the running buffer, and the measurement temperature was set to 25° C. […] After the measurement, the antibody captured on the chip was washed off by allowing reaction with 10 mM glycine-HCl, pH1.5 and 25 mM NaOH so that the chip was regenerated and used repeatedly. The sensorgrams obtained as measurement results were analyzed by the 1:1 Langmuir binding model using the BIACORE® Evaluation Software to calculate the binding rate constant ka (L/mol/s) and dissociation rate constant kd (1/s), and the dissociation constant KD (mol/L) was calculated from these values. […] Regarding such interactions, KD values were calculated using the following 1:1 binding model described in BIACORE® T100 Software Handbook BR1006-48 Edition AE.

[9] = molecular target: T9, human FcγRIIIaV extracellular domain with C-terminal His-tag (human, UniProt P08637 17-208); assay: SPR Biacore, antibody captured, FcgR analyte
T9 construct: also called human FcgRIIIaV; not shown: His-tag added to C-terminus
T9 sequence (P08637 17-208 F176V): as the sequence (P08637 17-208 F176V) above

[10] = molecular target: T10, human FcγRIIb extracellular domain with C-terminal His-tag (human, UniProt P31994 43-217); assay: SPR Biacore, antibody captured, FcgR analyte
T10 construct: also called human FcgRIIb; not shown: His-tag added to C-terminus
T10 sequence: T1 sequence

[11] = molecular target: T11, cynomolgus monkey FcγRIIa3 extracellular domain with C-terminal His-tag (cynomolgus monkey); assay: SPR Biacore, antibody captured, FcgR analyte
T11 construct: also called cyno FcgRIIa3; cynoFcγRIIa3; not shown: His-tag added to C-terminus
T11 chain: T8 chain

[12] = molecular target: T12, cynomolgus monkey FcγRIIa2 extracellular domain with C-terminal His-tag (cynomolgus monkey); assay: SPR Biacore, antibody captured, FcgR analyte
T12 construct: also called cyno FcgRIIa2; cynoFcγRIIa2; not shown: His-tag added to C-terminus
T12 chain: T8 chain with I127K, K130N, P133H, R142Q

Binding to human FcgRs (parent B3 = 100) [1]: 95
Binding to human FcgRs (parent B3 = 100) [2]: 74
Binding to human FcgRs (parent B3 = 100) [4]: 0
Binding to human FcgRs (parent B3 = 100) [3]: 0
B2: GpH7-B3 G237D / GpL16-k0 (antibody, human IgG1, kappa)
heavy: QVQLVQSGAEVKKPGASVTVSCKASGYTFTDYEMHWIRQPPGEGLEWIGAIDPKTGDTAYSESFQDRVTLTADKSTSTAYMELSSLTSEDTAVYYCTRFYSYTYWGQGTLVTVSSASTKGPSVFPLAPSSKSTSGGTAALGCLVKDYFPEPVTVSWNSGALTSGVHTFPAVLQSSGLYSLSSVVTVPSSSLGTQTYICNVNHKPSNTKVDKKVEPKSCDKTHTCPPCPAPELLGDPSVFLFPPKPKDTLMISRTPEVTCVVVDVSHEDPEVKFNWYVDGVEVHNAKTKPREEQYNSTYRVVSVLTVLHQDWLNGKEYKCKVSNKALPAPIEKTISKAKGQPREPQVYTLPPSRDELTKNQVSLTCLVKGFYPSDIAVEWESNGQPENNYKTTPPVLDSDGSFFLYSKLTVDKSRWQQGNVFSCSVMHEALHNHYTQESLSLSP
light: DIVMTQSPLSLPVTPGEPASISCQASESLVHSNRNTYLHWYLQKPGQSPQLLIYKVSNRFSGVPDRFSGSGSGTDFTLKISRVEAEDVGVYYCSQNTHVPPTFGQGTKVEIERTVAAPSVFIFPPSDEQLKSGTASVVCLLNNFYPREAKVQWKVDNALQSGNSQESVTEQDSKDSTYSLSSTLTLSKADYEKHKVYACEVTHQGLSSPVTKSFNRGEC
notes: also called B3 variant G237D

Binding to human FcgRs (parent B3 = 100) [2]: 93
Binding to human FcgRs (parent B3 = 100) [4]: 0
Binding to human FcgRs (parent B3 = 100) [3]: 13
B3: GpH7-B3 N325L / GpL16-k0 (antibody, human IgG1, kappa)
heavy: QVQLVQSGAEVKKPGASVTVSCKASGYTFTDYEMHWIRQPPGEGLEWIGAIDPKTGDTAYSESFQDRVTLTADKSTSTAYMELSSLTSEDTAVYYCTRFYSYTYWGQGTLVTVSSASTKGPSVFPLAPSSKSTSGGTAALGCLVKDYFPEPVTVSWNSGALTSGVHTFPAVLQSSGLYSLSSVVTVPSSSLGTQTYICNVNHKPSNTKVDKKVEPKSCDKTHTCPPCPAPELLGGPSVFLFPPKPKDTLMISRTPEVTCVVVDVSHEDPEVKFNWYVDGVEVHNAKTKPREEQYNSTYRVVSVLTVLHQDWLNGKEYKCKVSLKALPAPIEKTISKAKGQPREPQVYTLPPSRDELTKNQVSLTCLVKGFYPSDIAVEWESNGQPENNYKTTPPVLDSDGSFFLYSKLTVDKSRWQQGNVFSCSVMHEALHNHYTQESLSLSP
light: B2 light
notes: also called B3 variant N325L

Binding to human FcgRs (parent B3 = 100) [1]: 46
Binding to human FcgRs (parent B3 = 100) [2]: 37
Binding to human FcgRs (parent B3 = 100) [3]: 12
B4: GpH7-B3 A327I / GpL16-k0 (antibody, human IgG1, kappa)
heavy: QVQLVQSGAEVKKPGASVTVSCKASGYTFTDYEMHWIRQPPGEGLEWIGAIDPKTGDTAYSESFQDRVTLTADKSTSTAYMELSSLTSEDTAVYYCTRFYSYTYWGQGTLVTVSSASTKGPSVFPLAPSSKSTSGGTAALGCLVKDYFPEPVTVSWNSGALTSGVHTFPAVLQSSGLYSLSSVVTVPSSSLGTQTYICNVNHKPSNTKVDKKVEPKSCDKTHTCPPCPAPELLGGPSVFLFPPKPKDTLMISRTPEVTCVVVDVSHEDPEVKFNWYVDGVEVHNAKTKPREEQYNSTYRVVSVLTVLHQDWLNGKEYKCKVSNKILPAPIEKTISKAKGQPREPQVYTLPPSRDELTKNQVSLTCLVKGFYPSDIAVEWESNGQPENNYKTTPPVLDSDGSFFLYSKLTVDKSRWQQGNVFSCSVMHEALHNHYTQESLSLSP
light: B2 light
notes: also called B3 variant A327I

Binding to human FcgRs (parent B3 = 100) [2]: 21
Binding to human FcgRs (parent B3 = 100) [4]: 1
Binding to human FcgRs (parent B3 = 100) [3]: 2
B5: GpH7-B3 P238E / GpL16-k0 (antibody, human IgG1, kappa)
heavy: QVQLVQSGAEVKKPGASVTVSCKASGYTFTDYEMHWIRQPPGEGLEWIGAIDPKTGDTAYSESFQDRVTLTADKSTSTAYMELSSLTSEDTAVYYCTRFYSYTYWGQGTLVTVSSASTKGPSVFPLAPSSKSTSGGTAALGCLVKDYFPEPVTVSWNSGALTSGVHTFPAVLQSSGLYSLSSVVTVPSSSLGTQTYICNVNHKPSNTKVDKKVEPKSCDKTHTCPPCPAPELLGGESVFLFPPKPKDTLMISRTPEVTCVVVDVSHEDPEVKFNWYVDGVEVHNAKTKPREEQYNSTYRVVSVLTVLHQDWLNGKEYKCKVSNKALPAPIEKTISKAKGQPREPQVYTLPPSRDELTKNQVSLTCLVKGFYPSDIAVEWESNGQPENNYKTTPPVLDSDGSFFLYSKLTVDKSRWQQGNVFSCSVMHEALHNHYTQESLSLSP
light: B2 light
notes: also called B3 variant P238E

KD fold (SG1 = 1) [8]: 3.5 fold
B7: M103205H795-MY468/M103202L889-SK1 (antibody)
chain 1: QVTLKESGPVLVKPTETLTLTCTVSGIDLSHDDISWVRQAPGKGLEWVGIISYAGSTYYASWAKGRLTISKDTSKNQVVLTMTNMDPVDTATYYCARGVPAYSHGGDLWGQGTLVTVSSASTKGPSVFPLAPSSKSTSGGTAALGCLVKDYFPEPVTVSWNSGALTSGVHTFPAVLQSSGLYSLSSVVTVPSSSLGTQTYICNVNHKPSNTKVDKKVEPKSCDKTHTCPPCPNPELLTGPSVFLFPPKPKDTLMISRTPEVTCVVVDVSDEDPEVKFNWYVDGVEVHNAKTKPREEQYNSTYRVVSVLTVLHQDWLNGKEYKCKVSNKALPKPIEKTISKAKGQPREPQVYTLPPSREEMTKNQVSLTCLVKGFYPSDIAVEWESNGQPENNYKTTPPVLDSDGSFFLYSKLTVDKSRWQQGNVFSCSVMHEALHNHYTQKSLSLSP
chain 2: DIVMTQSPATLSLSPGERATLSCTSSQSVYHANWLSWFQQKPGQPPKLLIYWASTLAYGVPSRFSGSGSGTDFTLTISSLQPEDAATYYCAGGYGGGRYAFGQGTKVEIKRTVAAPSVFIFPPSDEQLKSGTASVVCLLNNFYPREAKVQWKVDNALQSGNSQESVTEQDSKDSTYSLSSTLTLSKADYEKHKVYACEVTHQGLSSPVTKSFNRGEC

KD fold (SG1 = 1) [5]: 0.04 fold
KD fold (SG1 = 1) [6]: 3.9 fold
KD fold (SG1 = 1) [9]: 0.03 fold
B12: M103205H795-MY440/M103202L889-SK1 (antibody, human IgG1, kappa, name in EU numbering)
heavy: B7 chain 1 with N233A, L237W, T238N, Q297L
light: B7 chain 2
notes: substitutions in EU numbering, introduced into M103205H795-SG1

KD fold (SG1 = 1) [5]: 0.03 fold
KD fold (SG1 = 1) [7]: 0.8 fold
KD fold (SG1 = 1) [10]: 3.5 fold
B15: M103205H795-MY434/M103202L889-SK1 (antibody, human IgG1, kappa, name in EU numbering)
heavy: B7 chain 1 with N233A, L237W, T238N
light: B7 chain 2
notes: as for B12

KD fold (SG1 = 1) [8]: 2.6 fold
B16: M103205H795-MY452/M103202L889-SK1 (antibody, human IgG1, kappa)
heavy: B7 chain 1 with N233A, P234Q
light: B7 chain 2
notes: Substitutions in EU numbering on SG1

The remaining lines, values behind:

B1: GpH7-B3 G236N / GpL16-k0 (antibody, human IgG1, kappa)
heavy: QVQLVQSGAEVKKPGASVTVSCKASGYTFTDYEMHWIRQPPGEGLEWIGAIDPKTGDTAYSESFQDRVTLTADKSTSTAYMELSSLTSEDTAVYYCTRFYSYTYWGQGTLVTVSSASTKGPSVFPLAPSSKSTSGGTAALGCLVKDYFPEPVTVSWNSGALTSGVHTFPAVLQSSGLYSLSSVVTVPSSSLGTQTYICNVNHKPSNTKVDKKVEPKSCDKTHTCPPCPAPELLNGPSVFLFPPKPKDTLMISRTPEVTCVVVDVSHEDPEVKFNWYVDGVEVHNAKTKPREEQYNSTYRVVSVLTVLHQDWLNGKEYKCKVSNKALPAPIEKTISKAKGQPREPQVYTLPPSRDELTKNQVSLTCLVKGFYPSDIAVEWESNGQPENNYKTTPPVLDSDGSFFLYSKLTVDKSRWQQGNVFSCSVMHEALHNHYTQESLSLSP
light: B2 light
notes: also called B3 variant G236N
Binding to human FcgRs (parent B3 = 100) [1]: 75
Binding to human FcgRs (parent B3 = 100) [2]: 54
Binding to human FcgRs (parent B3 = 100) [3]: 81

B6: M103205H795-MY052/M103202L889-SK1 (antibody, human IgG1, kappa, name in EU numbering)
heavy: B7 chain 1 with N233A, T238N, D270E, K332A, P398M
light: B7 chain 2
notes: as for B12
KD fold (SG1 = 1) [5]: 0.24 fold
Kd [5]: 1.5 µM
KD fold (SG1 = 1) [6]: 3.5 fold
KD fold (SG1 = 1) [7]: 0.1 fold

B8: M103205H795-MY176/M103202L889-SK1 (antibody, human IgG1, kappa, name in EU numbering)
heavy: B7 chain 1 with N233A, T238N, D270E, K332A, P398L
light: B7 chain 2
notes: EU numbering
KD fold (SG1 = 1) [5]: 0.16 fold
Kd [5]: 2.2 µM
KD fold (SG1 = 1) [6]: 1 fold
Kd [9]: 6.2 µM
KD fold (SG1 = 1) [7]: 0.1 fold
KD fold (SG1 = 1) [10]: 6.5 fold
Kd [10]: 0.7 µM
Kd [11]: 6 µM

B9: M103205H795-MY168/M103202L889-SK1 (antibody, human IgG1, kappa, name in EU numbering)
heavy: B7 chain 1 with N233A, T238N, D270E, K332A, P398A
light: B7 chain 2
notes: EU numbering
KD fold (SG1 = 1) [5]: 0.08 fold
Kd [5]: 4.5 µM
Kd [6]: 0.012 µM
Kd [7]: 2.8 µM
Kd [11]: 1 µM

B10: M103205H795-MY175/M103202L889-SK1 (antibody, human IgG1, kappa, name in EU numbering)
heavy: B7 chain 1 with N233A, T238N, D270E, K332A, P398K
light: B7 chain 2
notes: EU numbering
KD fold (SG1 = 1) [5]: 0.14 fold
Kd [5]: 2.6 µM
Kd [7]: 1.5 µM
KD fold (SG1 = 1) [11]: 2.3 fold

B11: M103205H795-MY171/M103202L889-SK1 (antibody, human IgG1, kappa, name in EU numbering)
heavy: B7 chain 1 with N233A, T238N, D270E, K332A, P398F
light: B7 chain 2
notes: EU numbering
KD fold (SG1 = 1) [5]: 0.11 fold
Kd [5]: 3.3 µM
Kd [12]: 2.3 µM
KD fold (SG1 = 1) [6]: 1.5 fold
Kd [6]: 9.8 µM
Kd [7]: 2.3 µM
Kd [10]: 1.2 µM
KD fold (SG1 = 1) [11]: 1.5 fold
Kd [11]: 9.2 µM

B13: M103205H795-MY212/M103202L889-SK1 (antibody, human IgG1, kappa, name in EU numbering)
heavy: B7 chain 1 with N233A, T238N, S241V, Q297L, K328T
light: B7 chain 2
notes: as for B12
KD fold (SG1 = 1) [5]: 0.14 fold
KD fold (SG1 = 1) [9]: 0.17 fold
KD fold (SG1 = 1) [10]: 7.5 fold

B14: M103205H795-MY183/M103202L889-SK1 (antibody, human IgG1, kappa, name in EU numbering)
heavy: B7 chain 1 with N233A, T238N, D270E, K332A, P398W
light: B7 chain 2
notes: EU numbering
KD fold (SG1 = 1) [5]: 0.1 fold
Kd [5]: 3.5 µM
KD fold (SG1 = 1) [12]: 2.6 fold
Kd [9]: 7.7 µM
KD fold (SG1 = 1) [10]: 4.7 fold
